Experimental findings from patent US20250019449A1 (Memorial Sloan Kettering, published 2025) are described below.

The target of assay [1] is T1, human CCR8 (human, UniProt P51685 1-355). The assay can be described thus: cell-based or functional assay.
Assay [2] deals with T1, human CCR8. Description: cell-based or functional assay. This is another data set of the same source.
The target in assay [3] is T1, human CCR8. Description: flow cytometry on mammalian cells expressing human CCR8. On the technique in general: In flow cytometry, cells or beads pass a laser one at a time.

T1 sequence (P51685 whole entry): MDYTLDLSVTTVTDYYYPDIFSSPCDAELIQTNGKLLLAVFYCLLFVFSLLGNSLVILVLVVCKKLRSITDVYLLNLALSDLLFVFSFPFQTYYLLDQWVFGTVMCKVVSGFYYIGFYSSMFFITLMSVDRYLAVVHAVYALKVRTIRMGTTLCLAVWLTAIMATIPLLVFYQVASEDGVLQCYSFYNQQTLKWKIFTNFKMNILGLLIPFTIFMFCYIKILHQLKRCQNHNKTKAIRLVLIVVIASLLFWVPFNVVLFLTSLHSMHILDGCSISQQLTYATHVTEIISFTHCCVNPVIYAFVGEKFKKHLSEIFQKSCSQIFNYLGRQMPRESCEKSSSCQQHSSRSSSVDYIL

B1: ADI-40327 (antibody, V domains shown)
VH: QVQLQESGPGLVKPSETLSLTCAVSGYSISSGYYWGWIRQPPGKGLEWIGSIYHSGNTYYRPSLKSRVTISVDTSKNQFSLKLSSVTAADTAVYYCARGKGGSWTAFGPWGQGTLVTVSS
VL: DIQMTQSPSSLSASVGDRVTITCRASQSISSFLNWYQQKPGKAPKLLISAASSLQSGVPSRFSGSGSGTDFTLTISSLQPEDFATYYCQQGHSTPPTFGGGTKVEIK
For B1, in the assay with human CCR8 [1], the “IC50 antagonism of EC80 Human CCL1 Gα15/16 Biosensor” value came out at 4.61 nM and the “IC50 antagonism of EC80 Human CCL1 Gαz Biosensor” value was determined as 5.46 nM. Moreover, the “EC50 of hCCR8-specific internalization” value with human CCR8 [2] came out at 14.3 µg/mL.

B2: ADI-46663 (antibody, V domains shown)
VH: EVQLVESGGGLVQPGGSLRLSCAASGFTFNAYAMNWVRQAPGKGLEWVARIRSKSNNYATYYADSVKDRFTISRDDSKNSLYLQMNSLKTEDTAVYYCVRQSYGNSNYAMDYWGQGTTVTVSS
VL: DIVMTQSPLSLPVTPGEPASISCRSSKSLLHSNGNTYLYWYLQKPGQSPQLLIYRMSNLASGVPDRFSGSGSGTDFTLKISRVEAEDVGVYYCMQHLEYPFTFGGGTKVEIK
For B2, in the assay with human CCR8 [1], the “IC50 antagonism of EC80 Human CCL1 Gα15/16 Biosensor” value came to 1.26 nM and the “IC50 antagonism of EC80 Human CCL1 Gαz Biosensor” value is 1.79 nM.

B3: ADI-40306 (antibody, V domains shown)
VH: QVQLVESGGGVVQPGRSLRLSCAASGFTFSSYGMHWVRQAPGKGLEWVAVISYDGSNKYYAFSVKGRFTISRDNSKNTLYLQMNSLRVEDTAVYYCARVRRIAGRAGYGMDVWGQGTTVTVSS
VL: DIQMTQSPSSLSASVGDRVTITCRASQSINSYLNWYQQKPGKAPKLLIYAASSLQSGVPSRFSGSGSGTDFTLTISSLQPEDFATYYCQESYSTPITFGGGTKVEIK
Regarding B3, in the assay with human CCR8 [1], the “IC50 antagonism of EC80 Human CCL1 Gα15/16 Biosensor” value worked out at 29.8 nM and the “IC50 antagonism of EC80 Human CCL1 Gαz Biosensor” value was 18.9 nM.

B4: ADI-35281 (antibody, V domains shown)
VH: EVKLEQSGGGLVQPKGSLKLSCVASGFTFNAYAMNWVRQAPGQGLEWVARIRSKSNNYATYYAASVKDRFTISRDDSQSILYLQMNNLKTEDTAMYYCVRQSYGNSNYAMDYWGQGTTVTVSS
VL: DIQLTQSPPSVPVTPGESVSISCRSSKSLLHSNGNTYLYWFLQRPGQSPQLLIYRKSNLASGVPDRFSGSGSGTAFTLRISRVEAEDVGVYYCMQHLEYPFTFGGGTKLEIK
notes: Produced as IgG
For the molecule B4, the “MFI Fold over Background” value with human CCR8 [3] amounted to 336 fold over background.

B5: ADI-40352 (antibody, V domains shown)
VH: QLQLQESGPGLVKPSETLSLTCTVSGGSISSSSYAWGWIRQPPGKRLEWIGSIYYTGSTYYNPSLKSRVTISVDTSKNQFSLKLSSVTAADTAVYYCLRGHRRDYIAFDIWGQGTMVTVSS
VL: DIQMTQSPSSLSASVGDRVTITCRASQSISSYLNWYQQKPGKAPKLLIYAASSLQSGVPSRFSGSGSGTDFTLTISSLQPEDFATYYCQQSHNLPTFGGGTKVEIK
On to B5, for which, in the assay with human CCR8 [1], the “IC50 antagonism of EC80 Human CCL1 Gα15/16 Biosensor” value came to 0.439 nM and the “IC50 antagonism of EC80 Human CCL1 Gαz Biosensor” value was found to be 2.39 nM. The “EC50 of hCCR8-specific internalization” value with human CCR8 [2] amounted to 5.7 µg/mL.

B6: ADI-40360 (antibody, V domains shown)
VH: QLQLQESGPGLVKPSETLSLTCTVSGGSISSSSYAWGWIRQPPGKRLEWIGSIYYTGSTYYNPSLKSRVTISVDTSKNQFSLKLSSVTAADTAVYYCVRGHRRDYIAFDIWGQGTMVTVSS
VL: DIQMTQSPSSLSASVGDRVTITCRASQSISSYLNWYQQKPGKAPKLLIYAASSLQSGVPSRFSGSGSGTDFTLTISSLQPEDFATYYCQQSHNLPTFGGGTKVEIK
Turning to B6, in the assay with human CCR8 [1], the “IC50 antagonism of EC80 Human CCL1 Gα15/16 Biosensor” value was found to be 1.78 nM and the “IC50 antagonism of EC80 Human CCL1 Gαz Biosensor” value came to 1.14 nM. In addition, the “EC50 of hCCR8-specific internalization” value with human CCR8 [2] amounted to 2.8 µg/mL.
